{
  "source": "paper PMC5573325",
  "key": {"[1]": {"target": "integrin αIIbβ3 (human (endogenous in platelets)) (UniProt P08514)", "sequence (P08514 32-1039, chain 1 of 2)": "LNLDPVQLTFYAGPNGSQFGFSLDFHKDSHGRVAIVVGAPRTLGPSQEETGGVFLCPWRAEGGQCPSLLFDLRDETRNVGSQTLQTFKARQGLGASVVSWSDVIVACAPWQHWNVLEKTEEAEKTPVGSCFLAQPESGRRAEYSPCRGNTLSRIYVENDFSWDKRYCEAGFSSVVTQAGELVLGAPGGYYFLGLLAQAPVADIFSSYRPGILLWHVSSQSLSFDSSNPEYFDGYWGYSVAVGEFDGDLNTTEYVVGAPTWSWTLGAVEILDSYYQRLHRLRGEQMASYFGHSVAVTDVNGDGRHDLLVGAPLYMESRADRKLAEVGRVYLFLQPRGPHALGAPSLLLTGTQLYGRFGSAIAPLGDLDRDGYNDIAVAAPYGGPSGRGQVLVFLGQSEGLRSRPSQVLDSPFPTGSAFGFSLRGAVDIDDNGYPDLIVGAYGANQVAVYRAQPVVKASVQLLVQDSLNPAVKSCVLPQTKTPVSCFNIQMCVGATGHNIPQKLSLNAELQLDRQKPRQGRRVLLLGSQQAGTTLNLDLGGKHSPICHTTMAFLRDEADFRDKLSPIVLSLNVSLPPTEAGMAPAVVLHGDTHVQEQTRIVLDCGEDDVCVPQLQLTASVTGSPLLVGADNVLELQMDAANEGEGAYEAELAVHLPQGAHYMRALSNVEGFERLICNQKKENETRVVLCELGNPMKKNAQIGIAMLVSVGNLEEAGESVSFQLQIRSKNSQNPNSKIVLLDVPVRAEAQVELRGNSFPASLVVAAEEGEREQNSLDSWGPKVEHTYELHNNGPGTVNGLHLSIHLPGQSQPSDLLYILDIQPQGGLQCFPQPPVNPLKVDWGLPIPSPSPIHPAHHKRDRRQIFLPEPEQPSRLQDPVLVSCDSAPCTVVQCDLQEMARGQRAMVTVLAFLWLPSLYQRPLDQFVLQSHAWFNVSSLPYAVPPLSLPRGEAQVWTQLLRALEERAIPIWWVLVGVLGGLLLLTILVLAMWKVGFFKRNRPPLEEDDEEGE", "sequence (P05106 27-788, chain 2 of 2, further chain)": "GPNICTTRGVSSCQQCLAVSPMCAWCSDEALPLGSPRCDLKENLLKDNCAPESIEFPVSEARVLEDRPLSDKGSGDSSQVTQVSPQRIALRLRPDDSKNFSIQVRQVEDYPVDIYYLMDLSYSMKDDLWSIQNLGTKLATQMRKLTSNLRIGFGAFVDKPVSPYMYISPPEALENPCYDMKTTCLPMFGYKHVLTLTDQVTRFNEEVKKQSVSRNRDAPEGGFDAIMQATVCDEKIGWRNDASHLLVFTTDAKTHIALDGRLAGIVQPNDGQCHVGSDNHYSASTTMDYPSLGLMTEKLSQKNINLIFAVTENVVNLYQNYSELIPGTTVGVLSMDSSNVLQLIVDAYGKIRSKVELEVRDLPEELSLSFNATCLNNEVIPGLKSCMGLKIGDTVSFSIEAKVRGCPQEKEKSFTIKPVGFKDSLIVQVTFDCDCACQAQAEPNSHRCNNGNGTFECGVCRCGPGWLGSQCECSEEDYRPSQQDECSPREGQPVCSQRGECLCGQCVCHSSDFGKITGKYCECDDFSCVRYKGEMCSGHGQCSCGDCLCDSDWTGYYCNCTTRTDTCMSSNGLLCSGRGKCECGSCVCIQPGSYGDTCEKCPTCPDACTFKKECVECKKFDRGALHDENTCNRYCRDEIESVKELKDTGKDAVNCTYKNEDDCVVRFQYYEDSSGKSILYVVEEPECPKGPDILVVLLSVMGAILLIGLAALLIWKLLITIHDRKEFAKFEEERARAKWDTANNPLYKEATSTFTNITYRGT", "assay": "flow cytometry on cells; FITC-triflavin (2 µg/ml) added to resting washed human platelets treated with 0.3 µM TQ-6"}, "[2]": {"target": "integrin αIIbβ3 (human (endogenous in platelets)) (UniProt P08514)", "assay": "flow cytometry on cells; FITC-triflavin (2 µg/ml) added to resting washed human platelets treated with 0.5 µM TQ-6"}, "[3]": {"target": "integrin αIIbβ3 (human (endogenous in platelets)) (UniProt P08514)", "assay": "flow cytometry on cells; FITC-triflavin (2 µg/ml) added to resting washed human platelets (3.6 × 10^8 cells/ml) in Tyrode's solution, 3 min; no additive (positive control)"}},
  "data": [
    {"substance": "triflavin (natural protein)", "values": [
      {"measurement": "relative fluorescence intensity", "setting": "[1]", "result": 1260},
      {"measurement": "relative fluorescence intensity", "setting": "[2]", "result": 1220},
      {"measurement": "relative fluorescence intensity", "setting": "[3]", "result": 1150}
    ]}
  ]
}
